Reference: the DeepSol protein solubility set

Assay: soluble on expression in E. coli; label from the status in PepcDB or PDB records

Sequence	soluble on expression in E. coli
MGSDKIHHHHHHLETSPSSSVSGNELLGTATNALVSLNGVYRAMYTAGVSNSSNTHQCFGITAYNLVADVMGEDCIMNGQGSGWFWYDCVYNVKSRYTSTGWRSYDMWNGYYTWISNVNYILAEEETMSGSETEKNYVLGQAYAVRAYSYFMLAQMFSRTYKGHESEPCVPLYTEPTDIATEGKGRATIEEVYQQITSDLDKAITMLGNSGKRKHISHINEAVASGIKARVALVMEDWQTALDAANAAISKSGCSVGTGTAVTGGMNDATANNVMWAAEIIADQSGMYAGFFTHMDADQGKYGASARKQINKLLYAKLGTNDVRKKWWNPQDENNEKNGYQQEKFKFKDYAKWTGDYIFMRIEEMFLTAAEASCRLNDDKGARLMLNSLMQKRDEDYTCKKTGTALGKLTSDETGSLLEEIIIQRRIELWGEFGRIYDIRRLKQGFRRTADMGWPSSALIAGTDTEDPESYAWVLTIPQTEFDGNPNMDPSKDQNPIGDHK	not soluble
MTTCGEFLVKQLEAWGVETVFGIPGVHTVELYRGLPGSRIRHVTPRHEQGAGFMADGYARVTGKPGVCFIITGPGMTNILTAMAQAYADSIPMLVISSVNERARLAHGNGYLHELPNQRNLVGNVCAFSHTLMSAEELPAVLARAFAVFDSERPRPVHIELPLDVITAPAEHLALRPRTVTSRPAPALAPLREAAARLRNAKKPLLLLGGGCVEAAAEARALAAALDAPTALTINAKGLLPADHPLLLGSNQSCVPVRELATEADVVLAIGTELGETDYDVVFDGGFALDGELIRIDIDPQQLMRNYTPSLAIHSDARLAMRVLLAELPGGEASPDSPGARRAAAVRQRLAEDFAGWSHYRQLFAAILAEWPDARFVGDSTQTVYSGNHLVDLDEPRRWFNASTGYGTLGYGLPAAIGAKLGEPGRPVVSLMGDGGLQFTLPELASAVEAKVGIVVLLWNNHGYGEIKRYMERREITPLGVDIYTPDFLAIARGFGCAAERARDLEHLRELLRGAPADRPLIVEVLQAAPFHP	not soluble
MSLQICQGNGEFVHLLENSKGSPESFASAYSQSMRLTNGEFLCYHISTDYKSISFYNFKNASDGRTIIIHLPAKLMHEHHTLVVEEQEGVIVVDVILESSAFLTMRLPLEYIFGIENVLDDNWLSMQSPYDFTVRRPHLLHKVSQDFFVVFLEDGGLLGLRQHNENYLEPLLFNDYSYIQTLTSMFSRKKKQPADRAVACLVIHDKYLVVLTRLCHLKIWDLGSFHLVQEYNLTENFNGTLETIEYESNGNYISTLNDVIVIYLPIGNGVFKFGRLSFTNDGERKPTFNMFSSIDANMKKSTIWSFVDMKLTDPLELNFTSTTFNLIILWKSGSNSKLQILNIKDSSFSDFEWIEASNKSLQNFQTEEISALIQNYDFDKALYKLKSHYSDMTFKEADSLLLANNIVYSENNETQQQQYLANLDTLLRDINNNHSEIASFTIYKNDMILVNTHNLYNHGFYKINSSLENIYFNLSEITEGHHHHHH	soluble
MGSDKIHHHHHHENKLVSGAVGLGFGTGPTFPGADENDSGLFPVVDLKIGQYVVVNQRGLGLEHSRSLGHGELSYGLGVGYDFTSRSVEDDLRLAGLSDVDAGAMATLFLEYQTGPFSYGLEVMRGLNSDGHEGTRAKLSGGYDIQLSERAGLSVSPYLIWADDNWMDSFFSVSNAQSVASGLAAYDANAGMSQAGLNLTASYALREQVIVFASVDYATLLGDAADSSVSFDDNAASLSAGVMFRF	not soluble
MSLTTDTTSQTVLRSRKDVPSSDCWDTKSLYASREAWKKDLENLCGKEAPFWPHLNEKQFHIEQPSSLYKLLTEVFSIERTLEKLYVYAHLTHDEDISNQEATADLKSITYLLTSFSEEISWIQPALIALPQKISEELLTSPELQTYHFYLKKIFRLAPHTGTSREEKILASSSPALEVAYKTFSSLTDSEIPFGEAVDSEGKSHPLSHALSSLYMQSPDRELRKSAYQKQCQRYHGYRLSLANLLNGKIQAHLFNAKAHNYKSCLEAALFQNNISTSVVTTLIETVKQHTHLMTKYFQLKQKALGLPDFHFYDVYAPIAASEFARHYSYEEAVSLICDSLTPLGDNYVEALRKGLTSEGWVDKYENQNKRSGAYSSGCYDSKPYILMNYTGTLYDVSVVAHEGGHSMHSFLSHKHQQYHEAQYPIFLAEIASTLNETLLMEFLLKNAPSKEEKIAILSRSLDTIFATLFRQTLFADFELEAHSAAEQGIPLTEEFFSQSYKKLQHIFYGDCVTFDELSSIEWARIPHFYYNFYVYQYATGIIASLCFSEKILSKEAGAQEAYLTFLQSGGSDFPIEILKKSGLDMTSSAPMLKAFSYIERKLDELTNLLEGHHHHHH	soluble
MNNISIPFEKLGNAKKVGIQLPDGLKRRAIEIAQLIEDRGYDVVISGETSFGACDIDLSILEVVDVLLHFAHTPILKDERVVYVPYFIEYNPKIDLKVDERRIALIATAQYVHKLPEVAEWLRGKGYEVEIGSPRGRVVYPGQVLGCNYSVLRGSNADAVVFIGDGLFHATGAAMYTKKKVYAYNPLSGELKEVDARNFEKKRYLEVSKCVGKSKAGILVSSKPGQRRLRLAEKLKKIGRENGLFCSIIYLNNVRAEELYNLPFDFYVNTACPRIAYDDGARFEKPVISPQEFELLLGLRESIAMDEIEF	not soluble
MNSSTENVTLKLKSEQLDIAKQWIQTEDVKAYKETSSIQKTFTIPVEREELVIEKIPTASDDKKEVIRIPLSEEEVNFSKHRIILEDVSIYKNQIEDVRHIEETLKKENPKIETFGNAKVIKKLEHHHHHH	not soluble
MDERRTAEERRERMLPETMPVCPVRGSVIYPTMVMPIDAGRPISIRAIDEALARDRVLLIVSQRDKEVETPRPSDLFEVGTACNILKMRKNPDGSVQVLVQAFARVRVREWLDLGDHLEARGEVLADEPGEPILVKALVREVKDKFQALLKEGKYLAPEVAQFILNLEDPSQLADYVAFHMDFRLEDKQKVLETANVAERLRAVLVLLEAELALIETQRRIQQQVKEEIDRNQREYFLREQMKAIQRELHGEEGEQEVEEFRRKLEALDLPPVVRQEAERELNRFARMHPDSAEASVIRTYLDWIVNLPWNTRTEDNLDLERAKEILERDHYGLEKVKDRVLEYLAVRKLKAERAKRGEIPPDEVNKGPILLFVGPPGVGKTSIAKSIAEALGRKYVRVSLGGVRDESDIRGHRRTYIGAMPGRIIQGLRQAGTKNPVFLLDEVDKLGISYQGDPAAALLEVLDPAQNKEFVDHYLGVPFDLSEVMFICTANFPQNIPAPLYDRMEPIEFTSYTEQEKLEIAKRYLLPRQLKENGLEPEQVVVTEAALTRLITHYTREAGVRQLEREIGALLRKAARRILEEGKKRVRITEKDLEAYLGPPRFLPETEAREPQVGVATGMYYTPVGGDIMFVEVSVMPGKGNLILTGQLGDVMKESARAALSYAKKNALRFGIPLEKFDKSDIHIHVPAGAIPKEGPSAGVALVSALVSALTEVPVRHDIAMTGEITLTGRVLPIGGVKEKVLGARRAGIREVILPKLNEPDLSDIPKPLRQNMTFHFVEHLDQVLDLALVGGLKALEERGRRPRSARKKKELVAHA	soluble
MENLKIRYIDTRKIGTVSGVKVPVKKGYKIVVEDEEKGEDIVEVLGYSREESKNGIQPRFVRVANKRDLEIFKKNMRESERAFEICKEKIKEHGLDMHLLKAYIPLNRKKVFFYYLAEERVDFRNLVRDLAKIFKRRIEMRQIGVRDAVQMKGWIGRCMRETCCSQFMENFQSISLRDITEQNLPLSPSKFTGPCGRLVCCMAFERENYLLKILFPEPGTKLCYNKQEVTLLEVDPLRETVVLQYDELGKKVELGVRDMLPKGYEKALEHCRSCQFCCRRVYEEATEHEIVKSSAELEHHHHHH	not soluble
MGSDKIHHHHHHMFKLIIVEDEHLIRKWLEIAVDYSALGIQVVGTASHGQEGMKLIQEKEPHIVLTDITMPIMDAFMMFEATRTLSYEKVILSGYNDFQNAKKAMQYGAVDFLSKPIDTKELTECLQKIVLRLRVSTRQETPFLEEYQTLLTSIQQIDTQNQIIQQILEFVHQHYCMHFTISSIAENLGYSESYLYKVIKEDFPMTLNEYILRYRLKQAIDKMAESPNSPLSDISEQIGFSDYKYFAKVFKKYLHISPKELKLMDKNH	not soluble
MSLKILDCTLRDGGYYTNWDFNSKIVDAYILAMNELPIDYLEVGYRNKPSKEYMGKFGYTPVSVLKHLRNISTKKIAIMLNEKNTTPEDLNHLLLPIIGLVDMIRIAIDPQNIDRAIVLAKAIKTMGFEVGFNVMYMSKWAEMNGFLSKLKAIDKIADLFCMVDSFGGITPKEVKNLLKEVRKYTHVPVGFHGHDNLQLGLINSITAIDDGIDFIDATITGMGRGAGNLKMELLLTYLNKHHGLNVDFNVLGNIITTFTPLLEKYQWGTNLPYMLSGANNIPQKEVMDWVTNRVYSFNSIIRALDNRKNKMEDNAKYPLLNIKNKFDRVVIIGGGFNAIEHKEAIKSFIETHTNTAIIFATARYAREYLDVNAPHFYCLVGNEGHRLTHNINPQNLSGICVLPPYPRPMGTEVPEYAKNVTFELENITFIDQYKDSVTTIALQLAILLTDQDIYLVGYDGYPGNVLSEKEMALTNENRTIFATYTTISGKILKSLTPSIYKEIEVVSVYQFEGHHHHHH	soluble
MGSDKIHHHHHHMSSSGKVIVVGAGIVGLATAWHLQEHGFEVSVLDRDGVAAGSSWGNAGWLAPAKTIPLSEPGLWTYGPKELFNPVSPMHMPLRVDPKLWLFLAQFMAQAFQRKWDSTMADLTEIDKVALEAFDELSIGGVEGLTHEGPFVIGFEEERQSAGFRKEIDGVSRHGQKVEMSRLENPQELAPMLNEQIQVAYRLEGQRFIEPGPYVQSLADAVVKRGGVIRAGAEVVHVAKGDRPAVILADGSREEADKVVVATGAWLPGLTREYGVKTLVQAGRGYSFSVATDIPAKHSVYLPHHRMACTPYEGRFRIAGTMEFRGPDEPFQQGRVDAIVSQAKKVMRGIDFNDRQDEWVGSRPVTPDGRPLIGQTKAENIYVAGGHGMWGVVLGPATGKYLAELMATGNTNPIIKPFDPLR	not soluble
QLQEKLYVPVKEYPDFNFVGRILGPRGLTAKQLEAETGCKIMVRGKGSMRDKKKEEQNRGKPNWEHLNEDLHVLITVEDAQNRAELKLKRAVEEVKKLLVPAAEGEDSLKKMKLMELAILNGTYRDANLKSPALHHHHHH	soluble
MGSDKIHHHHHHMAVTVENLTKRYGEKVALDNVSFDVKKGDILGIIGKSGAGKTTLIKILRGVESFDEGKIEVCGKTENLREITAIHLQRNFALWAEPAIYNIIRKLYAVRTDSDEGLPLEEEMEEYRKDATEILKLVGLEHKKDAYSNILSGGEKQRLILGRQLAKIYAKNGDGVLLLDEPATMACPASKQILLDVLKNINEKLGVTIIVTSHLPEIHKYLCKSCILIENGKIIMKDTPEKVVDEFLKDMVEAYDRLSKPTDKTVVEVEDASKRYYVVNGGETLNLKDISFKVKEKEILSILGPSGTGKSVILRLLAGLEAPDKGVVKLEGIDLKDFGWNRMNLRRKIGIMHQEFSLAHYLTVNELLKYRLGVKSIETVESAKLKAAELGISPKMVDGLYQLLDLPETEMRNKLDKIGISEMVVRKLFPAKPVEYDANELLEALDLNKETLNKKPTELSGGEKVRVAMALQLALEPDILLLDEPFGDLDPLTLREVSNYLKKINDTVGTTIILISHHVELIKEISDRAILIDEGKLLMNGNPEEICEKFIERSNSKFMNQ	not soluble
LVPEAPAPFEEPLPPEATDQWQDRALCAQTDPEAFFPEKGGSTREAKKICMGCEVRHECLEYALAHDERFGIWGGLSERERRRLKRGII	soluble
MKRLLLLGGIGEALALARRLGPAHLYSLAGLGKVPGDLACRVRVGGYGGAEGLAAFIDEQGFDLLVDATHPYAARISQNAVRAARLAGVPCWALRRPGWQAGPGDDWREVADWRELIAALTPFRRPLFTLGREPLEHLGQVPPHQHWTVRCLQGQPAAPRAEVIGARGPFSLDGERALFERLACDVLVSKNSGSQATEPKLQVAREMGLPVLVLARPALPPADREFADGEALLTAIRDWESA	not soluble
